Laboratory results published in patent publication US20250144104, “DISCOVERY OF A NEW INHIBITOR FOR THE YTH DOMAIN-CONTAINING M6A RNA READERS” (The Trustees of Boston College, published 2025).

Key:
[1] = biological target: T1, YTHDC2 YTH domain (UniProt Q9H6S0 Q9H6S0:1285-1424); assay: competition; value only in figure; 10 uM protein, 25 nM FAM-m6A-RNA; conditions: tags: N-terminal His-tag (pET28a), E. coli BL21(DE3); label: FAM
T1 sequence: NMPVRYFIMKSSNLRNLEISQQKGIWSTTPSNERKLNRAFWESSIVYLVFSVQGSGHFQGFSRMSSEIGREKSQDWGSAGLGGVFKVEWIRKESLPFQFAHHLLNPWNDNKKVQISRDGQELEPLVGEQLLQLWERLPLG
Description: To set up the FP competition assay, we first used the non-fluorescent “m⁶A-RNA” (FIG. 1C) as a positive control inhibitor. […] Samples were transferred onto the 384-well plate and measured on the plate reader as described above. We obtained the dose-response curves by plotting the FP values against concentrations of inhibitors. The inhibitory curves and IC₅₀ values were obtained using the “Dose-response Inhibition” model in GraphPad Prism6.0™.

[2] = biological target: T2, YTHDC1 YTH domain (UniProt Q96MU7 Q96MU7:345-509); assay: competition; value only in figure; 2 uM protein, 25 nM FAM-m6A-RNA
[3] = biological target: T3, YTHDF2 YTH domain (UniProt Q9Y5A9 Q9Y5A9:383-553); assay: as above; conditions: tags: N-terminal His-tag (pET28a), E. coli BL21(DE3); label: 5'-biotin
T3 sequence: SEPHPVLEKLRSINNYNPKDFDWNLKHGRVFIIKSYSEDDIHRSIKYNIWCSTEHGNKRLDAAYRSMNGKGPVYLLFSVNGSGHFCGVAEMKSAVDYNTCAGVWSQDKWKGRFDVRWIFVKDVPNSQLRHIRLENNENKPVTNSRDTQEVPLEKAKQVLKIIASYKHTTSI

[4] = biological target: T4, YTHDF3 YTH domain (UniProt Q7Z739 Q7Z739:391-585); assay: as above; conditions: tags: N-terminal His-tag (pET28a), E. coli BL21(DE3); label: 5'-biotin
T4 sequence: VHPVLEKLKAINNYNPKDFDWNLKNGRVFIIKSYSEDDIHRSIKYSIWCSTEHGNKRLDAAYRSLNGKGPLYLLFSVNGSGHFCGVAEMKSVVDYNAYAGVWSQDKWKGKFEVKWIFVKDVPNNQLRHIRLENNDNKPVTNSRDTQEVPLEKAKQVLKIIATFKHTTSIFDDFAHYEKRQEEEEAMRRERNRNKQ

[5] = biological target: T2, YTHDC1 YTH domain; assay: EMSA; 20 nM protein, 25 nM RNA, 10 mM HEPES, 50 mM KCl, 1 mM EDTA; complex inhibited by N-7
[6] = biological target: FTO (UniProt Q9C0B1 Q9C0B1:1-505); assay: FP; value only in figure; 50 mM borate pH 7.5; conditions: tags: His-tag (Ni resin purified), E. coli BL21(DE3); label: 5'-FAM
Sequence of FTO (Q9C0B1 whole entry, the tested form may be a part, one chain of several): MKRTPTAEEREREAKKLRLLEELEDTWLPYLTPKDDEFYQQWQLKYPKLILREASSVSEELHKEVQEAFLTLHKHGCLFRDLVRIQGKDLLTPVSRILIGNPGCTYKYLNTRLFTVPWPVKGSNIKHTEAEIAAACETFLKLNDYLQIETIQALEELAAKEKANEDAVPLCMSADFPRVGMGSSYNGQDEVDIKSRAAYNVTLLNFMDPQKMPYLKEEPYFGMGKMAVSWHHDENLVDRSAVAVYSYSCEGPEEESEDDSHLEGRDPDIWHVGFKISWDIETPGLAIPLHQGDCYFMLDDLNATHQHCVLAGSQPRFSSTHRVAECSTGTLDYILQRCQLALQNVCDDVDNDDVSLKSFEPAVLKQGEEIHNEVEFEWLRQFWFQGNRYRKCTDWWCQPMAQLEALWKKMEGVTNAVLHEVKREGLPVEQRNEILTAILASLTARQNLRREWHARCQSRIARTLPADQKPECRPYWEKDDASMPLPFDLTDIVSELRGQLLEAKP

[7] = biological target: T3, YTHDF2 YTH domain; assay: FP; value only in figure; 25 mM Tris-HCl pH 7.5, 150 mM NaCl; conditions: tags: N-terminal His-tag (pET28a), E. coli BL21(DE3); label: 5'-FAM
Description: (§1) Fluorescence polarization (FP) experiments were performed following the previously reported FP assay conditions for FAM-labeled RNA and YTH domains. Briefly, experiments were conducted in the binding buffer containing 25 mM Tris-HCl, pH 7.5, and 150 mM NaCl[50]. The same binding buffer was used in this study unless otherwise specified. RNA samples were diluted to 50 nM from the stock solutions by the binding buffer. YTH domain proteins were thawed, buffer exchanged into the binding buffer at 4° C. using the 10 kDa-cutoff concentrators (Sigma-Aldrich), and adjusted to 2× of the highest concentration used in the binding assay. […] RNase inhibitor (SUPERaseIn, Invitrogen) was added. 40 L protein solutions with various concentrations were prepared by serial dilution using the binding buffer. Subsequently, we added 40 L diluted RNA into each 40 L protein solution, mixed, and incubated at room temperature for 30 minutes. The final concentration of FAM-m⁶A-RNA or FAM-A-RNA was constant at 25 nM, and the YTH-domain protein concentrations varied from 10 nM to 24 μM. […] After incubation, samples were transferred to a black polypropylene 384-well round-bottom plate (Cellvis) and FP was measured on a Synergy™ Neo2 Multimode Microplate Reader at the wavelength of 485/20 nm for excitation and 528/20 nm for emission at 25° C.

[8] = biological target: T4, YTHDF3 YTH domain; assay: as above; conditions: tags: N-terminal His-tag (pET28a), E. coli BL21(DE3); label: 5'-FAM
Description: as §1

[9] = biological target: T5, YTHDF1 YTH domain (UniProt Q9BYJ9 Q9BYJ9:375-552); assay: FP; 25 mM Tris-HCl pH 7.5, 150 mM NaCl, 25 C; conditions: tags: N-terminal His-tag (pET28a), E. coli BL21(DE3); label: 5'-FAM
T5 sequence: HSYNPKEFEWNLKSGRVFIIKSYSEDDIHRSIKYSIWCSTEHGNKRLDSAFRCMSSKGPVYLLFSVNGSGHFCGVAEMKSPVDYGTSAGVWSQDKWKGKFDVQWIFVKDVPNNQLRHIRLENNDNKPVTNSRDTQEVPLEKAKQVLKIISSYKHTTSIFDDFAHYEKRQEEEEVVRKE
Description: as §1

Row | Binder | binding result [1] | binding result [2] | binding result [3] | binding result [4] | binding result [5] | binding result [6] | binding result [7] | binding result [8] | Kd [9] [nM]
1 | GAACCGGACUGUCUUA (ssRNA, m6A at position 8) [m6A-RNA (non-fluorescent)] | binds | binds | binds | binds |  |  |  |  | 
2 | GAACCGGACUGUCUUA (ssRNA, m6A at position 8) [FAM-m6A-RNA] |  |  |  |  | binds | binds | binds | binds | 800
